Experimental data reported in the supplement of paper PMC12042874.
± gives the uncertainty stated by the source.

Experiment: amyloid nucleation score (Sup35N fusion, yeast selection) (log enrichment); library NNK2; higher = more nucleation; inactive = no reads after selection
How it was run: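 Using DiMSum, nucleation scores were taken as the log enrichment of output over input reads, centred on the mode score of non-aggregating sequences. The input and output reads came from Illumina sequencing of plasmid inserts, with sequences under 100 input reads excluded. The yeast were psi-negative, expressed Sup35N fused to peptides of 20 random codons, were induced with 100 μM copper sulfate for 24 hours, and were grown 7 days at 30°C on medium lacking adenine and uracil.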

In order of falling amyloid nucleation score:
1. HHAHGFRPIGMCSCISMDPS  7.87 ± 0.059
2. IAVAKYLTLKDVVLNSWNSY  7.624 ± 0.036
3. GTMQFIVICNSDVFVSWLPN  7.253 ± 0.071
4. HCSFCVIVGFNRCDALGSHR  7.03 ± 0.075
5. GRIILTLFNYYT  6.878 ± 0.062
6. HNLMCYGWNFLSVSVVDNCD  6.552 ± 0.05
7. HIGSVVVELLSVRLLWHCMH  5.94 ± 0.088
8. IADQTMISRYSRS  5.89 ± 0.084
9. HVYYTVNLVLVNLYPLYFFT  5.855 ± 0.041
10. HVVLTLGLRISQHRLLRYKK  5.64 ± 0.095
11. HYLEGYRFDLEMIVCICQKG  5.369 ± 0.049
12. GYNGMGRCINWVRKYRWLLW  5.355 ± 0.033
13. HYPQYCFFARKIFITCGYME  5.22 ± 0.061
14. HSFIGSRIVSFGFDVRGRWA  4.91 ± 0.059
15. HEECIGSCCYGRWSCGTTLW  4.84 ± 0.054
16. HFLSFSMGWNSC  4.82 ± 0.063
17. HVYIGVNLKRENKTHQTSSV  4.77 ± 0.064
18. HVFFHFRDVTSGL  4.64 ± 0.065
19. HFYCMV  4.51 ± 0.11
20. GRSGFYCIHKMSVDTFIQKA  4.27 ± 0.074
21. HHGQTHHLMWNWIF  4.27 ± 0.1
22. HFGDIDKYRAADAGVVERNP  4.25 ± 0.083
23. HHLLPWGWRPVYGSRLRCTL  4.23 ± 0.049
24. HVTRVSVLQVLELHSTMTGV  4.09 ± 0.09
25. HPGMVVIAE  3.97 ± 0.075
26. IAVYTYLAGAWKHLETLAFP  3.8 ± 0.1
27. GRVKTYTVGFVNIIHFSWLG  3.57 ± 0.053
28. HIGIWGRQTLR  3.55 ± 0.049
29. GVNRAWL  3.35 ± 0.06
30. GYSTRIGASFGLGPVGCSAR  3.06 ± 0.087
31. GVVNLTD  3.01 ± 0.061
32. GVRYSFSTTRKFTELSFNIC  3 ± 0.16
33. GVSSNGSLCWCVFMKVPAVC  2.98 ± 0.078
34. GWVKTLEGLLMCLVVCNTVM  2.98 ± 0.12
35. HELAIISN  2.97 ± 0.17
36. HRVQSGLCSKNSRE  2.96 ± 0.15
37. HFFTQY  2.95 ± 0.1
38. HVDIRLWTFNRSRFIGVFGV  2.75 ± 0.079
39. GSYKSGSSSA  2.57 ± 0.1
40. HGMYKTG  2.54 ± 0.11
41. HYLAFVCIIFSLLRLITQPM  2.53 ± 0.18
42. IAKMSFAINNDIYNCRFIST  2.46 ± 0.11
43. GTMDITYTY  2.44 ± 0.11
44. HCSFG  2.32 ± 0.12
45. IAFFGLCMSRVSLGVLEMRL  2.21 ± 0.18
46. GVRDVIQL  2.05 ± 0.26
47. GRTSDFKLWIGVCLLGSSYV  1.89 ± 0.2
48. HDVFVTYTTLLITARLMRRP  1.86 ± 0.27
49. HIGILTT  1.64 ± 0.32
50. GVGRWIQCQDSWNTNRPSQP  1.52 ± 0.27
51. HLVVSMVRTLVCHFCRFDVS  1.28 ± 0.41
52. HDGICSNSGVVSINKNGNYD  1.27 ± 0.29
53. GYGRLIWLGACRL  1.18 ± 0.48
54. HRVRSDDLVKAWPQWNALGA  1.18 ± 0.12
55. GSWLCCSLRWSSSALGVGWA  1.12 ± 0.39
56. HQRGMNLISFVWHSENVRIW  1.07 ± 0.61
57. GRLSISDYIY  1.02 ± 0.61
58. GWKDGLAASSF  1.01 ± 0.2
59. HWLRSGWELNVRVLGPQATF  0.982 ± 0.34
60. HFMSYAAWAREWSVEPQ  0.967 ± 0.66
61. HLSFGFRRNRR  0.967 ± 0.2
62. GRMWEMACFLATNMLGKSDS  0.959 ± 0.29
63. GSKGIRRYCLTIFVSPVQSA  0.895 ± 0.81
64. HNPSIAARCGGICYDNITVW  0.838 ± 0.51
65. GYCYYVPFMVGP  0.817 ± 0.8
66. GVMRIHCGDREC  0.8 ± 0.54
67. HMEKWCSSTMSRLLSVQLAK  0.771 ± 0.29
68. HNGVCSSRARVSLWAGRCWK  0.742 ± 0.22
69. HTKVRGKRLCGDWSVRISCS  0.733 ± 0.29
70. HFPHGHDFVFTVCYDTHSCL  0.729 ± 0.15
71. GSYLA  0.697 ± 0.47
72. GTSHWWIGMRFSEADLLLDW  0.656 ± 0.41
73. GVQYRSGESGDSASYWRLGG  0.628 ± 0.38
74. HVNWVKKSSWLIGT  0.62 ± 0.74
75. GSTVKYWCMPGSSLLLHCVY  0.611 ± 0.66
76. HASTEIGSWL  0.552 ± 0.42
77. GVREYMH  0.544 ± 0.28
78. GTFSCGSGEI  0.534 ± 0.8
79. GWRKSLNWCVYVGEGASIVV  0.517 ± 0.25
80. GRPVMMEMPII  0.512 ± 0.42
81. HLRWARRIGVCTVFYLSRIC  0.483 ± 0.57
82. HDTESTLVTVLRAFLHRCDY  0.411 ± 0.56
83. HEGIDVSMPHQDRTAADNLA  0.409 ± 0.53
84. GVVYLGNRLISFSRSLSLKT  0.387 ± 0.45
85. GSYVTAISAHFVGKLCASRI  0.343 ± 0.8
86. GSLVQNVFTMDGGDYHMR  0.307 ± 0.27
87. HNSCVSITSKLQCPLRTVSG  0.252 ± 0.65
88. HVFADERMDVGGSITVTARG  0.164 ± 1.1
89. HKEEV  0.163 ± 0.53
90. GVRWYAMRPEVGYL  0.155 ± 1.1
91. GRRLSGILRRDGGANGCHRR  0.098 ± 0.42
92. HRVYEFIKPLGPGAHTFVFT  0.097 ± 1.1
93. GSEECTLTDCRGSRQDILKR  0.078 ± 0.77
94. GSAHTCSTS  0.077 ± 0.3
95. HGLEVVQMASSLELQARKKA  0.049 ± 0.34
96. HFNFCLWDNENYRNGMVWCR  0.042 ± 0.5
97. HRYEKSAHTVVWSIMVFS  0.033 ± 0.45
98. HNLNKTGDKRFYTLFVSSPR  0.012 ± 1
99. GVKFQAAEAGPPGTYGTLGS  -0.031 ± 0.63
100. HGHLHYLMNR  -0.031 ± 1
101. HSVKCDSLGFLPFSTYWLRI  -0.047 ± 0.79
102. GYFAYRVICNVVGDTGFSLA  -0.06 ± 1.1
103. HCGMAYFH  -0.111 ± 0.32
104. GWCVHSKKDGKYCRSYTRQF  -0.136 ± 0.23
105. HKFIPAVVSCMQGNMKNYWS  -0.166 ± 0.5
106. GTRLNYFNWIICGGETGCAA  -0.171 ± 1
107. HWDLIGGVL  -0.176 ± 1.1
108. GTSFVKFEK  -0.186 ± 0.23
109. GVKRLVTGVCNKYRDIFFVG  -0.22 ± 1
110. GYMYCISATCRDLSKGRTGT  -0.221 ± 0.39
111. IAITDFVLVSVLHSKWCIF  -0.246 ± 0.5
112. GTWMWETFCRLTFVFGIRRG  -0.264 ± 0.54
113. GTSCSMGPAWGLSCYGTFVD  -0.288 ± 0.55
114. GTSRLNVEGGLYCRGSIVDV  -0.299 ± 0.37
115. HKLCGYIYIRVIRSWKWYKQ  -0.306 ± 0.63
116. HYFEIVA  -0.315 ± 0.45
117. HPHKS  -0.325 ± 0.76
118. HYCRHLLVLHSSKYARSHSS  -0.338 ± 0.37
119. HRVAVTKYATRYIPLIMLNW  -0.354 ± 0.49
120. GTTCGSSCRVVSLMKENVGA  -0.367 ± 0.48
121. HDKLVTRLYWYSKCVVKGLN  -0.375 ± 1.1
122. HFCVLLLSFKNKILNYAFMH  -0.393 ± 1.1
123. HYRIWVMHMWDCYWTTNFHG  -0.393 ± 0.63
124. HASWIGISLS  -0.395 ± 0.74
125. GRILNAEVFGVINASDNCAD  -0.412 ± 0.63
126. GVENKDRVSPNYVG  -0.424 ± 0.49
127. HHRIFGMIDELSKVTNIHFG  -0.434 ± 0.74
128. HRLQLPHHRKGKWVLLMWGV  -0.44 ± 0.41
129. HVCCFKSQDRCYWVG  -0.447 ± 0.63
130. GSCSEHTKLLI  -0.455 ± 0.37
131. HVTMCKYYFWYMEIVVVKP  -0.456 ± 0.55
132. HMHQPSSPHLLLCV  -0.47 ± 0.46
133. GSSVDNACQSDLPVQVSMKF  -0.478 ± 0.64
134. GSWLFREVMPA  -0.51 ± 0.44
135. HCCHRFYMDSEIACTCFTTM  -0.523 ± 0.56
136. HFSFTPFRTWV  -0.527 ± 0.27
137. GSYHFHASNTD  -0.555 ± 0.79
138. GVFSLRKGGCRDW  -0.567 ± 1.1
139. GSWFPFWLSASMHGSCIYTR  -0.576 ± 0.44
140. HLSCDWVLIDEGLACYM  -0.586 ± 0.54
141. GVPIGKKYRTSVCENMEGSW  -0.627 ± 0.31
142. GSSYNGNTRLTHVGRSVSVR  -0.632 ± 0.63
143. GYNLKILESIMEGSAGLMCT  -0.779 ± 0.33
144. HKRHTLK  -0.809 ± 1.1
145. HLYCRALILLVVLPGYTQLL  -1.07 ± 0.78
146. GTSDSWTNVGRHYLKGVRDG  -1.08 ± 0.55
147. GYRFEAPWYNGLTVYGRIFC  -1.1 ± 0.55
148. HTYNLSKR  -1.1 ± 0.62
149. HLTSKVTGASIKVTKVNYLD  -1.25 ± 0.64
150. HETLQASIFVLLIHTKYHES  -1.58 ± 1
151. HLDGWRNFDYDIS  -2.3 ± 0.78

In the case of GSKSCRDYNIKFIYDRYFMG, the amyloid nucleation score is reported as “inactive”.
For GSMSTSASVRPFWRYVFLH, the amyloid nucleation score was “inactive”.
In the case of GTARDGRYSSMKVSDRYFVR, the amyloid nucleation score is reported as “inactive”.
In the case of GVDKGSVYG, the amyloid nucleation score is reported as “inactive”.
With GVSVV the amyloid nucleation score was “inactive”.
With GWFMNCTLVVKVTDTEIGLY the amyloid nucleation score was “inactive”.
In the case of GYRYHLWHVT, the amyloid nucleation score is reported as “inactive”.
With GYYMRLS the amyloid nucleation score was “inactive”.
In the case of HCHAVDSLNVHFKEFIHRMN, the amyloid nucleation score is reported as “inactive”.
With HDGVNCSYRSDSIYIVENTH the amyloid nucleation score was “inactive”.
For HIFVVGMDRSVVSRSVEP, the amyloid nucleation score was “inactive”.
For HIMIFWYPVLTIKVQYDVGV, the amyloid nucleation score was “inactive”.
For HLCGC, the amyloid nucleation score was “inactive”.
For HLCSCTMWGPHNRGFYYHWC, the amyloid nucleation score was “inactive”.
With HQVLYTIAISFTIELAVIIA the amyloid nucleation score was “inactive”.
For HTSVFFRKKPGSCISRSLSL, the amyloid nucleation score was “inactive”.
For HWRFFCMDHNFILSVKDVVA, the amyloid nucleation score was “inactive”.
In the case of HWWLIIRDLKASRIDVRQWE, the amyloid nucleation score is reported as “inactive”.
In the case of IAKPSVRHMYSFHVVDKTGH, the amyloid nucleation score is reported as “inactive”.
With IAPLWPYLNPYRVIFF the amyloid nucleation score was “inactive”.
